“And” between values parts separate entries of the source, which are not always exact repeats. Equal values may be shown once. Bridge positions count the residues as written; N and C are the ends. Ends that are not written are not given here. * marks the point of attachment. 5FAM = O=C1OC2(c3ccc(O)cc3Oc3cc(O)ccc32)c2ccc(C(=O)*)cc21

One series has as its target NPR‐C. The settings on record: literature value in Table 2; read-out: K i, literature; cited from earlier work. The text has this: Table 2 Summary of control peptide FP analyses | column: K i (competitive; nM)
The target of series [1] is T1, extracellular domain (ECD) NPR‐C (27–481)‐6His (Homo sapiens, UniProt P17342).
T1 construct: extracellular domain (ECD) NPR‐C (27–481)‐6His; 6His (C); purchased Peak Proteins, UK
T1 sequence (P17342 27-481): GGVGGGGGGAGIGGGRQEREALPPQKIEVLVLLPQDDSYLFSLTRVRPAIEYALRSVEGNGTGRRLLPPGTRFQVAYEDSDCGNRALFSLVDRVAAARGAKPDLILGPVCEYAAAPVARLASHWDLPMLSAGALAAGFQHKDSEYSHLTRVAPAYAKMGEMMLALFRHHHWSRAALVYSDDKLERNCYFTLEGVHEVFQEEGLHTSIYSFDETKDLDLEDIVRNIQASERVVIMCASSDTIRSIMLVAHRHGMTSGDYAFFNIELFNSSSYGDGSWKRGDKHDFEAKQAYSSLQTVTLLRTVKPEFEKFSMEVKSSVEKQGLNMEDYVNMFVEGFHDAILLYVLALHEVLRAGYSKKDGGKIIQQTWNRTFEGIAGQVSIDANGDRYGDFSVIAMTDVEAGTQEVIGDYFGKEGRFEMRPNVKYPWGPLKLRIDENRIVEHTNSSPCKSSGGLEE
Kind of series: Surface plasmon resonance, immobilized extracellular domain NPR‐C. The class given is binding. The settings on record: SPR, experimentally observed R max as percentage of theoretical R max (quality control), each table line a separate run. A general note: Surface plasmon resonance follows binding to a sensor surface in real time, without labels.

Series [2] has as its target T2, Human full‐length (FL) NPR‐C (27–541)‐10His‐Flag (Homo sapiens, UniProt P17342).
T2 construct: Human full‐length (FL) NPR‐C (27–541)‐10His‐Flag; 10His (C); Flag (C); purchased Peak Proteins, UK
T2 sequence (P17342 27-541): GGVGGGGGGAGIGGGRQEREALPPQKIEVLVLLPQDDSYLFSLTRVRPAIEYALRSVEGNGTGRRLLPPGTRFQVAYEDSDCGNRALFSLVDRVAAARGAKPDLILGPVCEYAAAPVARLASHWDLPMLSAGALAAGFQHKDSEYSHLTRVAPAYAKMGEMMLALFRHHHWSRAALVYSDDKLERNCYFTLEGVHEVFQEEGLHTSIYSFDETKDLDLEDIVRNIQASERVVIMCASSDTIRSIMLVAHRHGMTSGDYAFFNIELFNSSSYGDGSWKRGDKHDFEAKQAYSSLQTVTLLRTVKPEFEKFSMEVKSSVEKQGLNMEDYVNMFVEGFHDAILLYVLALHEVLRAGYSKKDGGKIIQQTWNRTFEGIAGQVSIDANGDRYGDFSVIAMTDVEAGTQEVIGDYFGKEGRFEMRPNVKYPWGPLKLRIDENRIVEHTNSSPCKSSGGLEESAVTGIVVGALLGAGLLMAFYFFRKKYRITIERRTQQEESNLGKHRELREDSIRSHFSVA
Kind of series: Surface plasmon resonance, immobilized full‐length NPR‐C. The format is binding. The settings on record: SPR, experimentally observed R max as percentage of theoretical R max (quality control), each table line a separate run.

Another series deals with T3, FL NPR‐C (Homo sapiens, UniProt P17342).
T3 construct: Human full‐length (FL) NPR‐C (27–541)‐10His‐Flag; 10His (C); Flag (C); purchased Peak Proteins, UK
T3 sequence (P17342 27-541): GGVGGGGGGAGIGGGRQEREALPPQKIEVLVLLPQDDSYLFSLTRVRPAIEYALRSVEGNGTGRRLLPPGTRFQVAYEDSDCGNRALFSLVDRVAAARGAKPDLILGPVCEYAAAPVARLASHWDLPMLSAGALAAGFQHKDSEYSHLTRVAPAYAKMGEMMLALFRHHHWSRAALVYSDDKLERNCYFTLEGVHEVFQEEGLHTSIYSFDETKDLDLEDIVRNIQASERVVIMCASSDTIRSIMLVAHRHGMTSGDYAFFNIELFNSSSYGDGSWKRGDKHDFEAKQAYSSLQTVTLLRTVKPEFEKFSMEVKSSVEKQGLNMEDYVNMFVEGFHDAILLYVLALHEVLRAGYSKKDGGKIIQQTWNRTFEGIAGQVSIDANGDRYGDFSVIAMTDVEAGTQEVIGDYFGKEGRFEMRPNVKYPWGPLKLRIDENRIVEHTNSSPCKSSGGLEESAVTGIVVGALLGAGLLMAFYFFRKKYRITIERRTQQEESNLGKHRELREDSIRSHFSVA
The series can be described thus: Thermal shift assay (Protein Thermal Shift Dye Kit). The format is binding. The settings on record: for ΔTm: FL NPR‐C 0.1 mg/ml, 1× dye, ramp 25–99°C, T m mean across four replicates. How it is done:
Thermal shift assays were performed using Thermo Fisher Scientific Protein Thermal Shift™ Dye Kit, and samples were prepared according to the accompanying protocol.17 A solution of Protein Thermal Shift™ Dye was always prepared fresh from the 1,000× stock. Optimization experiments were performed by titrating NPR‐C protein (0.1, 0.05 and 0.01 mg/ml) and Protein Thermal Shift™ Dye concentration (80, 8 and 1×) to identify conditions that achieved melt curves with the greatest dynamic fluorescence range and least standard error in T m (melt temperature) values. […] The total volume for each reaction was 20.0 μl. Each melt reaction was mixed at least 10 times, and the plate was sealed with MicroAmp® Optical Adhesive Film. The plate was then spun it at 112 g for 1 min and placed on ice until measurement. Thermal melt reactions were performed and analysed using a 7500 Real‐Time PCR System®. A 5‐carboxy‐X‐rhodamine (ROX) reporter and a continuous temperature ramp of 25–99°C were used (2 min per step). Optical filters were set at 580 nm (excitation) and 623 nm (emission). The T m for each sample was obtained by differentiating the original fluorescence melt curve using OriginPro mathematical and peak identification functions. The reported T m values are the mean across four replicates.

Series [3] concerns the target T4, Human full-length (FL) NPR-C (27–541)-10His-Flag (human, UniProt P17342-2 27-540).
T4 construct: natriuretic peptide receptor C (NPR-C), human, residues 27-541; Primarily a disulphide-bonded dimer (~130 kDa) on non-reducing SDS-PAGE; The tag's end is read from the construct's name (27–541)-10His-Flag; also called natriuretic peptide receptor C; natriuretic peptide receptor type-C; source: expressed and isolated at Peak Proteins, UK; not shown: 10His, C-terminal, kept; Flag, C-terminal, kept
T4 sequence (looked up): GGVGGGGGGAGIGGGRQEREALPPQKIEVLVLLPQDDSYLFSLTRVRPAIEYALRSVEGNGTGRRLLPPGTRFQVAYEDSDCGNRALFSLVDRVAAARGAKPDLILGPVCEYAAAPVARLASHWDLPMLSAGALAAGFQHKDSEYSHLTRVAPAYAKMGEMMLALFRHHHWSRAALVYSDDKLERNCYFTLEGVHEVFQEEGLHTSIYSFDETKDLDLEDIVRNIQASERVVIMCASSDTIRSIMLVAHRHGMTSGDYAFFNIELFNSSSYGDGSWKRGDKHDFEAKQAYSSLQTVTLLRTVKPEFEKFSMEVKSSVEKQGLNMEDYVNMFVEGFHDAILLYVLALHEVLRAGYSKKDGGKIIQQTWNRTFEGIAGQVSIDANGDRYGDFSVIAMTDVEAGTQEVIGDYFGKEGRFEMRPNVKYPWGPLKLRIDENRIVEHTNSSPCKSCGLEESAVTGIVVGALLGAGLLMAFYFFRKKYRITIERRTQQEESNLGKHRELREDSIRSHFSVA
Kind of series: SPR; steady-state affinity analysis of Flu-P19 on immobilised FL NPR-C. The settings on record: both partners purified.

The target in series [4] is T4, Human full-length (FL) NPR-C …. The series can be described thus: thermal shift; Protein Thermal Shift Dye Kit; FL NPR-C 0.1 mg/ml, 1x dye; ligand at 1:1 or 10:1 ratio to the protein; ramp 25-99°C; Tm mean of four replicates. The settings on record: both partners purified.
Series [5] addresses T5, extracellular domain (ECD) NPR-C (27–481)-6His (human, UniProt P17342-2 27-481).
T5 construct: natriuretic peptide receptor C (NPR-C), human, extracellular domain, residues 27-481; Mainly monomer (~55 kDa) on non-reducing SDS-PAGE; the discussion says ~25% of the molecules are disulphide-bonded; The tag's end is read from the construct's name; also called (27–481)-6His (ECD); extracellular NPR-C; source: expressed and isolated at Peak Proteins, UK; not shown: 6His, C-terminal, kept
T5 sequence (looked up): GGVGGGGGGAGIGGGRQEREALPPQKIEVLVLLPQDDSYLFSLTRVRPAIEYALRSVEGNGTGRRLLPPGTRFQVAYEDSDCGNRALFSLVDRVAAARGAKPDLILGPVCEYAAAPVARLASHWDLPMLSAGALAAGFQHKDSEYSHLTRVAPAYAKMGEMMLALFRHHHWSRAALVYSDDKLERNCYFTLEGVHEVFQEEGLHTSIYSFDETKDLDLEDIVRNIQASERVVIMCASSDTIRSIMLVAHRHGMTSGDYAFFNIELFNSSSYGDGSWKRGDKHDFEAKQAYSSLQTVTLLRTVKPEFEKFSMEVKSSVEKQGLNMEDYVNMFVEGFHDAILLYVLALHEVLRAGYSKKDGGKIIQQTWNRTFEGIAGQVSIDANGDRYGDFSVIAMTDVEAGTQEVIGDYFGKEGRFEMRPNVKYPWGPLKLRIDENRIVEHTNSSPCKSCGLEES
The series can be described thus: fluorescence polarisation; competition against 15 nM Flu-P19 probe; FL NPR-C 150 nM or ECD NPR-C 400 nM; competitor 4.89 nM-2.5 uM; HEPES buffer, 3% DMSO; Ki computed from IC50 with a web-based converter. The settings on record: both partners purified.

Series [6] deals with T4, Human full-length (FL) NPR-C …. The description is as above. The settings on record: both partners purified.
Series [7] shares this target. The series is described as above. The settings on record: both partners purified. The source holds these as a separate data set.

Consider C‐type natriuretic peptide [CNP], for which the Ki on NPR‐C is 0.023 nM. Besides, the “% theoretical R max” value came out at 51% in [1] and 31% in series [2]. In addition, the “ΔTm, approximate shift given in text” value on FL NPR‐C (FL NPR‐C, ratio not stated in the sentence (Figure 9c,d)) is ~ 11 °C. Also, the values for the ΔTm result at FL NPR‐C (NPRC + ligand (1:1)) and at FL NPR‐C (NPRC + ligand (1:10)) were “+8.2 °C” and “+11.7 °C”, respectively.

B1: 5-carboxyfluorescein N-terminus labelled GLSKG[CFGRSLDRIGSLSGLGC]NS (Flu-P19) (peptide)
peptide: 5FAM-GLSKGCFGRSLDRIGSLSGLGCNS
modifications: not fully specified (bridges); cysteine pairing not given here
notes: P19, a peptide identified by phage display (Deschênes et al., cited); also called Flu-P19 probe; source: synthetic peptide, bought: Peptide Protein Research Ltd, UK
Regarding B1, the Kd (as a rule, the equilibrium constant for the complex coming apart) in series [3] is around 10 nM.
For GLSKGCFGLKLDRIGSMSGLGC (ligand, disulfide 6-22 (inferred)) [C-type natriuretic peptide], the ΔTm (commonly the shift of the melting midpoint relative to a reference) in series [4] was around 11 °C. The Ki in series [5] was 0.1 nM; in series [6] it was 0.1 nM; in [7] it was 0.49 nM. Further, the IC50 (as a rule, the concentration that gives 50% inhibition) in series [6] is 68.4 nM and 142 nM and 111 nM; in series [7], 142 nM.

The record behind these values is publication PMC6879014, “Biophysical screening methods for extracellular domain peptide receptors, application to natriuretic peptide receptor C ligands” (Chemical Biology & Drug Design, 2018).
